# Source: the PETadex activity labels (doi:10.1016/j.bbrc.2024.150833)
# B1: unnamed (protein)
# chain: MTDVEIALSTGRVKGTDLGDVVRYYGIPYAEDPVGDLRFAAPVRREPWPGVRDATRPAATAQRLRFDPDPAIPEPIVAGTDILHVDVWAPTEGAGHPVLVWIHGGGWESGSSHQPWFVGTAFARAGIVVVSVGYRLGVEGFTAFPDAPDNRGVRDWIMALEWVRDEIAAFGGDPGQVTVSGQSAGGGAVLCLLASPLAAGLFHRGIASSPAVLRSPAAQAPKGTTAAGLAAGGRGAVDEFHRRLRKDNPFLMPFRPTVGDDTVPVPPLEGIGSGPGLDLPLLIGSTATEFEGVVRALPGAALVPGAAMILRSQELPTTGLRALARQSAGKSLRRAVGAVVDAATIHSTVVRAAETRVAAGAPTWVYDFRWSEGRGAVHCADLPFFWSVPEAANVRAYLGADAPPGLVDAMHRSWVDFVRSGDPGSPPYAPPGRRVQVWDEPPAVVEDGLADVRAVWWPAGGS
# Substrate: pNPB
# Assay: Proxy for plastic degradation [Absorbance @ 405nm]
protein,measurement,setting,value
B1,Proxy for plastic degradation,pH 5,10.3 U/mg
same,Proxy for plastic degradation,pH 5.5,15.4 U/mg
same,Proxy for plastic degradation,pH 6,41.1 U/mg
same,Proxy for plastic degradation,pH 6.5,61.7 U/mg
same,Proxy for plastic degradation,pH 7,72 U/mg
same,Proxy for plastic degradation,pH 7.5,77.1 U/mg
same,Proxy for plastic degradation,"pH 8, 10 °C",36 U/mg
same,Proxy for plastic degradation,"pH 8, 20 °C",46.3 U/mg
same,Proxy for plastic degradation,"pH 8, 25 °C",77.1 U/mg
same,Proxy for plastic degradation,"pH 8, 30 °C",92.6 U/mg
same,Proxy for plastic degradation,"pH 8, 37 °C",103 U/mg
same,Proxy for plastic degradation,"pH 8, 40 °C",84.9 U/mg
same,Proxy for plastic degradation,"pH 8, 50 °C",59.7 U/mg
same,Proxy for plastic degradation,"pH 8, 60 °C",20.6 U/mg
same,Proxy for plastic degradation,"pH 8, 70 °C",10.3 U/mg
same,Proxy for plastic degradation,pH 8.5,92.6 U/mg
same,Proxy for plastic degradation,pH 9,87.4 U/mg
